± gives the standard deviation.
Test: protein stability index of a GFP-peptide fusion (GPS, HEK-293T) (PSI 1-6); higher = more stable
[1] = treatment: DMSO, c terminus: a fixed tail appended
[2] = treatment: MLN4924 1 uM, 8 h, c terminus: a fixed tail appended
[3] = treatment: DMSO, c terminus: native
[4] = treatment: MLN4924 1 uM, 8 h, c terminus: native
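Further: 24-mer peptide tiles fused after GFP, lentivirally expressed, FACS-sorted into six equal bins by GFP/DsRed ratio, decoded by Illumina sequencing, PSI is the read-weighted mean bin number.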

| Sequence | protein stability index [1] | protein stability index [2] | protein stability index [3] | protein stability index [4] |
| --- | --- | --- | --- | --- |
| KPKMNYEKLSRGLRYYYDKNIIHK [ETS2] | 2.48 ± 0.19 | 2.52 ± 0.38 | – | – |
| DDMLLFDEQEKGIVTKFYQLSATG [FAN1] | 3.57 ± 0.3 | 3.46 ± 0.2 | – | – |
| TFQSHEPEFDYLKSLEIEEKINKI [PPP2R2C] | 4.74 ± 0.17 | 4.81 ± 0.31 | – | – |
| CSECGESFSRSSRLMSHQRTHTG [ZNF263] | – | – | 3.02 ± 0.6 | 3.53 ± 0.95 |
| LHSKEIVYRDLKPENILLDRDGHI [PRKX] | 3.7 ± 0.15 | 3.75 ± 0.097 | – | – |
| NSASDPSLKDGLSDSDSELSSSEG [PSD2] | 5.69 ± 0.14 | 5.61 ± 0.19 | – | – |
| SLLAGTADGSLRMDDPKGDFITLY [M1AP] | 2.51 ± 0.22 | 2.44 ± 0.52 | – | – |
| EFDDGSGSVLRIQPLRTPRDEAIY [PTPRD] | 3.47 ± 0.11 | 3.88 ± 0.54 | – | – |
| KWTRVASMSTRRLGVAVAVLGGFL [KLHL20] | 2.18 ± 0.11 | 2.08 ± 0.13 | – | – |
| DSPENGADSFESSDSLLQSWNSQS [ETS2] | 5.11 ± 0.16 | 5.14 ± 0.15 | – | – |
| HIDAIILALPEDLQGILLKTGMT [DENND6A] | – | – | 2.31 ± 0.59 | 2.59 ± 0.67 |
| EEPAEKEDLLQQMLERRYTPYPNL [CLCN6] | 4.4 ± 0.19 | 4.44 ± 0.37 | – | – |
| EVPEMSPVTCCDVSSNNRLVVTGS [TLE6] | 4.35 ± 0.31 | 4.57 ± 0.1 | – | – |
| TFLVFSKAELGALPHDFIDSLEKT [NLN] | 2.13 ± 0.26 | 2.5 ± 0.25 | – | – |
| SYHDGYGEALGRDHSEHLSGSSYR [RBMY1A1] | 4 ± 0.19 | 4.12 ± 0.35 | – | – |
| IELNGGQPPLTYKRFQTLISKMEP [CRY1] | 2.53 ± 0.3 | 2.51 ± 0.16 | – | – |
| PDEMRMQALLIRERILGPSHPDTS [FEM1A] | 3.29 ± 0.26 | 3.56 ± 0.19 | – | – |
| CRQRLIFEQTPALTKHEWTEALGC [ZNF8] | 2.38 ± 0.2 | 2.42 ± 0.26 | – | – |

| Sequence | protein stability index [1] | protein stability index [2] | protein stability index [3] | protein stability index [4] |
| --- | --- | --- | --- | --- |
| APEYFEKNEPYLEAACNDVDRWPA [DENND6A] | 4.59 ± 0.29 | 4.47 ± 0.38 | – | – |
| LFSDPRSTRLTRIHLREDLVQDQD [ZER1] | 4.53 ± 0.24 | 4.55 ± 0.09 | – | – |
| KDHECSECGKTFIYNSHLVVHQRV [ZNF232] | 2.56 ± 0.32 | 2.88 ± 0.41 | – | – |
| NWATTPSSQKKDTSSSTVVSTQRS [TIA1] | 4.83 ± 0.19 | 4.92 ± 0.18 | – | – |
| TSVLDALSTDMVHAASDPSSSSGR [SMOC2] | 4.99 ± 0.19 | 4.96 ± 0.18 | – | – |
| RSVSLSMRKSGAMKKGGIFSAEFL [BNIP3L] | 2.8 ± 0.3 | 2.95 ± 0.34 | – | – |
| MSTEEQYRIRQVNIYYYLEDDSMS [EFHC1] | 2.19 ± 0.26 | 2.13 ± 0.3 | – | – |
| RIHVRRHITHDERPHGQQIVFKD [KCTD13] | – | – | 4.31 ± 0.24 | 4.33 ± 0.32 |
| FARNGALSTHNWTYWQCGQYLGVG [RSAD1] | 2.63 ± 0.66 | 2.17 ± 0.17 | – | – |
| CPTPARLATTEKKTEQQRRREKAV [NOP53] | 5.19 ± 0.27 | 5.28 ± 0.24 | – | – |
| REHRVRRIHVRRHITHDERPHGQQ [KCTD13] | 4.36 ± 0.21 | 4.45 ± 0.29 | – | – |
| ERAKELYSSGEFSSGRKWGDDAPK [INTS4] | 4.77 ± 0.33 | 4.66 ± 0.14 | – | – |
| GSVADTVARVLRGCLENMPEADCI [PLK2] | 2.88 ± 0.4 | 2.94 ± 0.33 | – | – |
| AEEHREKLLKQMRILWKKIQENQR [TRIM43] | 2.46 ± 0.24 | 2.21 ± 0.18 | – | – |
| SVICRSLPEGMGPGESGQPPPAC [ALKBH7] | – | – | 2.87 ± 0.71 | 3.5 ± 0.69 |
| AFAQRPSSAPDLMCLSPDRKMEVE [CDC25B] | 4.97 ± 0.3 | 4.78 ± 0.14 | – | – |
| QPLEGGTPNSAGGPGAHILRRKSP [ADAMTS4] | 5.34 ± 0.43 | 5.37 ± 0.17 | – | – |
| DQKVIELVKKYGTKQWTLIAKHLK [MYBL2] | 2.77 ± 0.91 | 3.12 ± 0.49 | – | – |

Source: the supplement of paper PMC10567573
